# Experiment: yeast display, Sf9 membrane polyspecificity reagent, FACS + sequencing; frameworks hold sequencing errors
# Outline: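 In a synthetic yeast display library (Saccharomyces cerevisiae BJ5465), nanobody expression was induced with galactose for 36–48 hours. FACS gates were set low and high (top ~1%) using anti-HA fluorescence for expression and streptavidin fluorescence for binding of the Sf9 membrane reagent. Each polyreactivity label is drawn from the gate of origin.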
row,Sequence,polyreactivity (PSR sort gate)
1,QVQLVESGGGLVQAGGSLRLSCAASGSTFEYYAMGWYRQAPGKERELVAAISTSGGSTYYADSVKGRFTISRDNAKNTVYLQMNSLKPEDTAVYYCNRGRRYSHKYDYWGQGTQVTVSS,high polyreactivity
2,QVQLVESGGGLVQAGGSLRLSCAASGSTFEYYAMGWYRQAPGKERELVAAITRRGGSTYYADSVKGRFTISRDNAKNTVYLQMNSLKPEDTAVYYCAAVPTQKSPRTHDYWGQGTQVTVSS,low polyreactivity
3,QVQLVESGGGLVQAGGSLRLSCAASGSTFEYYAMGWYRQAPGKERELVATITFGGGSTYYADSVKGRFTISRDNAKNTVYLQMNSLKPEDTAVYYCAADSGYLGIYGDEYSWGQGTQVTVSS,low polyreactivity
4,QVQLVESGGGLVQAGGSLRLSCAASGSTFEYYAMGWYRQAPGKERELVATMSIDGRTNYADSVKGRFTISRDNAKNTVYLQMNSLKPEDTAVYYCAARPYWRHRYDYWGQGTQVTVSS,low polyreactivity
5,QVQLVESGGGLVQAGGSLRLSCAASGSTFFANAMGWFRQAPGKAREFVAVITWGGSTYYADSVKGRFTISRDNAKNSVYLQMNSLKPEDTAVYYCNADYQPPGILYHWWRYYRGDYWGQGTQVTVSS,low polyreactivity
6,QVQLVESGGGLVQAGGSLRLSCAASGSTFFCYAMGWYRQAPGKERELVAAISRSGDRTYYADSVKGRFTISRDNAKNTVYLQMKSLKPEDTAVYYCAAKGFKPSDWGQGTQVTVSS,high polyreactivity
7,QVQLVESGGGLVQAGGSLRLSCAASGSTFFDYAMGWYRQAPGKERELVAAISRSGDTNYADSVKGRFTISRDNAKNTVYLQMNSLKPEDTAVYYCAKDWAYRRHWVGFYYWGQGTQVTVSS,low polyreactivity
8,QVQLVESGGGLVQAGGSLRLSCAASGSTFFGNTMGWYRKAPGKERELVATITRRGGSTYYADSVKGRFTISRDNAKNTVYLQMNSLKPEDTAVYYCAKRGPYTKYDYWGQGTQVTVSS,low polyreactivity
9,QVQLVESGGGLVQAGGSLRLSCAASGSTFFGYAMGWYRQAPGKERELVAAIRYNGGRTYYADSVKGRFTISRDNAKNTVYLQMNSLKPEDTAVYYCAAYISYSRTYYYWGQGTQVTVSS,low polyreactivity
10,QVQLVESGGGLVQAGGSLRLSCAASGSTFFGYTMGWYRQARGKERELVAAITRRGGSTYYADSVKGRFTISRDNAKNTVYLQLNSLKPEDTAVYYCNAVSKSTNYAGRYDYWGQATQVTVSS,high polyreactivity
11,QVQLVESGGGLVQAGGSLRLSCAASGSTFFIKAMGWYRQAPGKERELVAAITSTDSTTYADSVKGRFTISRDNAKNTVYLQMNSLKPEDTAVYYCAKETIGQDPVSGAWARHEYDYWGQGTQVTVSS,low polyreactivity
12,QVQLVESGGGLVQAGGSLRLSCAASGSTFFINAMGWYRQEHGTEREFVASISYSGGSTYYADSVKGRFTISRDNAKNTVYLQMNSLKPEDTAVYYCNADVRVFLHYSKYNYWGQGTQVTVSS,low polyreactivity
13,QVQLVESGGGLVQAGGSLRLSCAASGSTFFIYAMGWYRQAPGKERELVAAISWRDGSTYYADSVKGRFTISRDNAKNTVYLQMNSLKPEDTAVYYCAADYLLPWGIELDYWGQGTQVTVSS,high polyreactivity
14,QVQLVESGGGLVQAGGSLRLSCAASGSTFFKNTMGWYRQAPGKEREFVAAIRWSTSRTYYADSVKGRFTISRDNAKYTVYLQMTSLKPEDTAVYYCNAGTSLSRRYPEDYYWGQGTQVTVSS,high polyreactivity
15,QVQLVESGGGLVQAGGSLRLSCAASGSTFFLKAMGWYRQSPGKERELVAAISYSDSGTNYADSVKGRFTISRDNAKNTVYLQMNSLKPEDTAVYYCATAVRPWYVTSGNYWGQGTQVTVSS,low polyreactivity
16,QVQLVESGGGLVQAGGSLRLSCAASGSTFFLYAMGWYRQAAGKERELVAAISVSGGSTRYADSVNGRFTISRDHAKNTVYLQMNSLKPEDTAVYYCAAASRLEYSHATLYYWGQGTQVTVSS,high polyreactivity
17,QVQLVESGGGLVQAGGSLRLSCAASGSTFFLYAMGWYRQAPGKEREFVAAISIGGSTNYADSVKGRFTISRDNAKNTVYLQMNSLKPEDTAVYYCAKLDLQYIQYLGYDYWGQGTQVTVSS,low polyreactivity
18,QVQLVESGGGLVQAGGSLRLSCAASGSTFFPYAMGWYRQAPGKERELVAAIRWSGGRTYYADSVKGRFTISRDNAKNTVYLQMNSLKPEDTAVYYCAADKYLDYDYWGQGTQVTVSS,high polyreactivity
19,QVQLVESGGGLVQAGGSLRLSCAASGSTFFPYAMGWYRQAPGKVRELVAAIRWSGGRTYYADSVKGRFTISRDNAKNTVFLQMNSLNPEDTAVYYCAAYKYLDYDYGGQGTQVTVSS,high polyreactivity
20,QVQLVESGGGLVQAGGSLRLSCAASGSTFFRNAMGCYRQAPGKERELVADISASGGSTYYADSVKGRFTISRDNAKNTVYLQMNSLKPEDTAVYYCNALYIYFYNYLTMDYWGQGTQVTVSS,low polyreactivity
21,QVQLVESGGGLVQAGGSLRLSCAASGSTFFSNTMGWYRQAPGKERELVAAITSRGGRTYYADSVKGRFTISRDNAKNTVYLQMNSLKPEDTAVYYCAARFVLHGVYLKFYWGQGTQVTVSS,high polyreactivity

row,Sequence,polyreactivity (PSR sort gate)
1,QVQLVESGGGLVQAGGSLRLSCAASGSTFFSYAMGWYRQAPGKERELVAAISWIDDGTYYADSVKGRFTISRDNAKNTVYLQMNSLKPEDTAVYYCAATKFWYYGYDYWGQGTQVTVSS,low polyreactivity
2,QVQLVESGGGLVQAGGSLRLSCAASGSTFFTNAMGWYRPAPGKERELVAAITINDGSTFYADSVKGRFTISRDNAKNSDYLQMNSLKPEDTAVYYCNTDGVDLYDYWGQGTQVTVSS,low polyreactivity
3,QVQLVESGGGLVQAGGSLRLSCAASGSTFFTNAMGWYRQAPGKERELVAAITINDGSTFYADSVKGRFTISRDNAKNTVYLQMNSLKPEDTAVYYCNADGVDLYDYWGQGTQVTVSS,low polyreactivity
4,QVQLVESGGGLVQAGGSLRLSCAASGSTFFTNVMGWYRQAPGKERELVAVIRWRGSDTYYADSVKGRFTISRDNAKNTVYLQMNSLKPEDTAVYYCNAIESFYPTTGEQGYSYDYWGQGTQVTVSS,low polyreactivity
5,QVQLVESGGGLVQAGGSLRLSCAASGSTFFVNAMGWYRQAPGKERELVASITVSSGRTYYADSVKGRFTISRDNAKNTVYLQMNSLKPEDTAVYYCAARHLYWRREGYYWGQGTQVTVSS,high polyreactivity
6,QVQLVESGGGLVQAGGSLRLSCAASGSTFFVYDMGWYRQAPGKERELVAAISSDTSTNYADSVKGRFTISRDNAKNTVYLQMNSLKPEDTAVYYCNADSYWEYDYWGQGTQVTVSS,low polyreactivity
7,QVQLVESGGGLVQAGGSLRLSCAASGSTFFYNAMGWYIQAPGKERELVAAITVTGTSTYYADSVKGRFTISRDNAKNTVYLQMNSLKPEDTGVYYCNTSLKRRRLRFNYWGQGTQVTVSS,low polyreactivity
8,QVQLVESGGGLVQAGGSLRLSCAASGSTFFYYAMGWYRQAPGKERELVARITRGGGSTNYADSVKGRFTISRDNAKNTVYLQMNSLKREDTAVYYCAKRRKVTYDYWGQGTQVTVSS,high polyreactivity
9,QVQLVESGGGLVQAGGSLRLSCAASGSTFFYYAMGWYRQAPGKERELVATIRGSAGRTYYADSVKGRFTISRDNAKNTVYLQMNSLKPEDTAVYYCARRYWPGSAYWIYDYWGQGTQVTVSS,high polyreactivity
10,QVQLVESGGGLVQAGGSLRLSCAASGSTFGDNAMGWYRQAPGKERELVAAITSVGTTYYADSVKGRFTISRDNAKNTVYLQMNSLKPEDTAVYYCNAEYVWDDYFEFDYWGQGTQVTVSS,low polyreactivity
11,QVQLVESGGGLVQAGGSLRLSCAASGSTFGDYAMGWYRQAPGKERELVAAISVRGGSTYYADSVKGRFTISRDYAQNTVYLQMNSLKPEDTAVYYCNKDLYRYPGYDSWGQGTQVTVSS,high polyreactivity
12,QVQLVESGGGLVQAGGSLRLSCAASGSTFGENAMGWYRQAPGKERELVAAISSGGSTNYADSVNGRFTISRDNAQNTVYLQMNSLQPEDTAVYYCNRYPVRDTGGYWGQGTQVTVSS,low polyreactivity
13,QVQLVESGGGLVQAGGSLRLSCAASGSTFGFNGMGWYRQAPGKERELVAAIRSSGGSTYYADSVKGRFTISRDNAKNTVYLQMNSLKPEDTAVYYCAADYYTYGFANWYLWYDYWGQGTQVTVSS,high polyreactivity
14,QVQLVESGGGLVQAGGSLRLSCAASGSTFGFYAMGWYRQAPGKERELVAAIDSGGSTYYADSVKGRFTISRDNAKNTVYLQMNSLKPEDTAVYYCAVRHRYTRAYWGRDYWGQGTQVTVSS,low polyreactivity
15,QVQLVESGGGLVQAGGSLRLSCAASGSTFGFYAMGWYRQAPGKERELVAAISSSGSTYYADSVKGRFTISRDNAKNTVYLQMISLKPEDTAVYYCAAQPGYYDYDYWGQGTQVTVSS,low polyreactivity
16,QVQLVESGGGLVQAGGSLRLSCAASGSTFGGNAKGWYRQAPGKERELGAAISSSGGSTYYADSVKGRFTLSRDNAKNTVYLQMNSLKPEDTAVYYCAALYHWTYDYWGQGTQVTVSS,low polyreactivity
17,QVQLVESGGGLVQAGGSLRLSCAASGSTFGGNAMGWYRPAPGKERELVAGITSSGTSTYYADSVKGRFTISRDNAKNTVYLQMNSLKPEDTAVYYCATDEADESYGFELFDYWGQGTQVTVSS,low polyreactivity
18,QVQLVESGGGLVQAGGSLRLSCAASGSTFGGNAMGWYRQAPGKERELVAAITVGGDSPYYADSVKGRYTISRDNAKNTVYLQMNSLKPEDTADYYCAARHYWWYDYWGQGTQVTVSS,low polyreactivity
19,QVQLVESGGGLVQAGGSLRLSCAASGSTFGGNAMGWYRQAPGKERELVAVISKRGGSTYYADSVKGRFTISRDNAKNTVYLQMNSLKAEDTAVYYCAATYSRYWSPTYDYWGEGTQVTVSS,high polyreactivity
20,QVQLVESGGGLVQAGGSLRLSCAASGSTFGGYAMGWYRPAPGKERELVAAINRSGARTYYADSVKGRFTISRDNAKNTVYLQMNSLKPEDTAVYYCNKAQGSHGAYDYWGQGTQVTVSS,high polyreactivity

# — the nanobody polyreactivity screen of Harvey et al. (2022)
